Results from article PMC3807668, “Structure of the CRISPR Interference Complex CSM Reveals Key Similarities with Cascade” (Molecular Cell, 2013).
Values joined by “and” are separate entries in the source; they are usually repeats but may differ in a detail not shown here. Identical values can stand only once.

T1: Sso1428 with C-terminal tandem tag (Strep and 10x His) (S. solfataricus, UniProt Q97YA4 1-558, methylation (residues not given))
T1 chain: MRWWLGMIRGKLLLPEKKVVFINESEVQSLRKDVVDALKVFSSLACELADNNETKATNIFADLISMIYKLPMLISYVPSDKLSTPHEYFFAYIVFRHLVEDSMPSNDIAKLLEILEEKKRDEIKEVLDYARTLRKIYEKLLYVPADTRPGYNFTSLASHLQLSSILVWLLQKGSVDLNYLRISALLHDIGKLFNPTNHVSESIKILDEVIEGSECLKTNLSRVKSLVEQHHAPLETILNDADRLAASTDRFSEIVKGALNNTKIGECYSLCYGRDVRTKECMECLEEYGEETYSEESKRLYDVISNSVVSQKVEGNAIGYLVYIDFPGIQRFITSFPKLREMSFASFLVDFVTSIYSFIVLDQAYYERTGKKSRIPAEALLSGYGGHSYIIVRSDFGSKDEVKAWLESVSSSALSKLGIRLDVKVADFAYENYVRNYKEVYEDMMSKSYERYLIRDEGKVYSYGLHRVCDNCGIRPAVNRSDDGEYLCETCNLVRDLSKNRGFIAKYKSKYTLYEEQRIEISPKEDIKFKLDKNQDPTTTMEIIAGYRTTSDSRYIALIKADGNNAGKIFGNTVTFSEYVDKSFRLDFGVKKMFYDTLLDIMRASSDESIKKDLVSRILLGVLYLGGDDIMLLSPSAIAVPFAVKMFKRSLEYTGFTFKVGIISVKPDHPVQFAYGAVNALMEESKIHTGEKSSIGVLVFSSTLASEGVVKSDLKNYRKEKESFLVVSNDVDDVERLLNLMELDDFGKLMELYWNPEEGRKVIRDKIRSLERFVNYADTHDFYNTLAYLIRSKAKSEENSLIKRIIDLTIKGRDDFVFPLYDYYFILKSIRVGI

B1: Sso1424 (natural protein, UniProt Q97YA8 16-139, looked up)
chain: SSQDLLDIATRIAISAIKPKPKSNKPEPYVDSSTINSLLSFLQSRRNVNELLLYIMRQAGRDEIDEETGKLLLASLKDRELKDAVNLLGYVKWVYDTLTGLKVNYNNVKGVKTFKELVNILSKV
modifications: acetylated N-terminal Ser-16; seven methylated lysines (positions not given)
notes: Sso1424, small subunit (probably Csm2) of the CSM complex of S. solfataricus; three copies in the CSM complex; also called small subunit; Csm2; source: endogenous, S. solfataricus PH1-16; co-purified with the tagged subunit (HisTrap, monoQ, gel filtration)
B2: Sso1426 (natural protein, UniProt Q97YA6 1-281, looked up)
chain: MVLMVNYTFIDKRVIKRTTMIEGDVETVSPLKIGGGKDNFDPSSLAKDSILKDVEGRPIIPGSSWKGIFRSTGERILRLRNIEVCSGIGKDYCLNNNRKERDFNSALKENVDQALEIFWDYTCLNCKVFGTMSVIGAVRFLDSLPISYSLNTRSMIAISRTEGAVARRALVTVEYVDVGSKFSFKMMGYNLPNYAIGYLITIMKNIHDGFTQVGGHKSRGFGFVKFGKVKFTDLGEKRIGDEDIQVKDVGDLVEGNGDEFFGRMKPFMEAFNNAKIPYPKK
modifications: methylation (residues not given)
notes: Sso1426, RAMP subunit assigned to the Csm3 (Cas7-like) family, CSM complex of S. solfataricus; four copies in the CSM complex; its mass lies within 70 Da of that of Sso1427; also called Csm3; Cas7 family RAMP subunit; source: endogenous, S. solfataricus PH1-16; co-purified with the tagged subunit (HisTrap, monoQ, gel filtration)
B3: Sso1425 (natural protein, UniProt Q97YA7 1-250, looked up)
chain: MKMSCMDLDVITTVVKIEGKLRNETLLRVGKGKTQDFAEATDNPIIKYRDRPLIPGSSLKGAFRSLVESYTKSLNDSKYYVCDLDDNSCVSCEEKKKDNGIVEGRYCIPCILFGFKDLASRVYILDAIAEKYSISQRTMVAINRVFGGQMPGHLYTLDYVDPGSEFSFMMMIYNLNLIEGEKDWKAKSVEALKFLLATLVREGIFVGARKSVGYGLIKLVDAKVSLYKAPDHLVSPVIVKKLEEVIGTNG
modifications: methylation; phosphorylation (residues not given)
notes: Sso1425, RAMP subunit of the CSM complex of S. solfataricus; also called RAMP subunit; Csm3 paralog; source: endogenous, S. solfataricus PH1-16; co-purified with the tagged subunit (HisTrap, monoQ, gel filtration)
B4: Sso1432 (natural protein, UniProt Q97YA0 1-252, looked up)
chain: MVIQVFRLNFRLRTGFRVGGGQEVGDNVIRQLRIGVEGVMIPASSWKGMFRRVSEIVLNSEDHFEEHSKKEVDTRTINALLKSDEKFRRIAISKVGKEVITQNGINVDKLDSESLSDLRRIYNEYNCPIERLYGSNYFAGGITISDSVIPNASIMERTHVTIERKSKKASEKHLFSEEIIDAEKIEVKVIVRNEFELWKNSLKLLREIGYFIGGSKSRGIGYIVLDEKESEYAVINNFSETPKFSELKRYLS
modifications: methylation (residues not given)
notes: Sso1432, RAMP subunit of the CSM complex of S. solfataricus; also called RAMP subunit; Csm3 paralog; source: endogenous, S. solfataricus PH1-16; co-purified with the tagged subunit (HisTrap, monoQ, gel filtration)
B5: Sso1431 (untagged, in the complex purified by tagged Sso1428) (natural protein, UniProt Q97YA1 1-304, looked up)
chain: MILIKLKVKGYITTQMRRIRNYYFSITNYIPSTTLRGAILAEYYNQTGKIDENFYVSPAYPIKTAPAHYFSPAKERKGDEFIEVKRILEKKEKEFEANKPIEEIMKLEIDGKHPKPKIGSLITYEGETDKENKYREFSSKSIIQMHVAIDKTSISSYKGMLFAYEYKEFDEMWAIASDSEVIDTVKRIKIGRGKNRGNKVVDVEKVREVSLDQSKGLLYCLSPCIGSLFGKTFFKAKYIIGDKSIYSGWFTVDSFSGQKPVFETLREGSLVYVESFSNEKSLMPAGLNFMLRISDLSSILNKVS
modifications: methylation; phosphorylation (residues not given)
notes: Csm4 (Sso1431, Cas5 subfamily RAMP protein) of the CSM complex of S. solfataricus; also called Csm4; Cas5-like RAMP subunit; source: endogenous, S. solfataricus PH1-16; co-purified with tagged Sso1428 (HisTrap, monoQ, gel filtration)
B6: Sso1427 (natural protein, UniProt Q97YA5 1-275, looked up)
chain: MQRSPIRRSNYTPRNEKGLEGVIELQLNVVSDYLHVGSGKYDVEVMRSVSDVKRLVEDYLSGGNKRIPNNVDQYFSMVAFLMVRNKDNVVIPGSTIKGMVRSRLELSVPGSCYIVTGHSTSSSAVYKRIFNPDPNRGSDRFDVNKFPQVCPVCDLLGNMGLASRVSLSDFVMTSGKVDYVNVKGRDYEVVTKGSIFAGKVLYKSLKPVEIGMLLYGFGFVKDCNGSKVMLLGRFKFSDKRFGRVKFSLKTPIADCNKLVSDFVKQFNPRYINEEW
modifications: methylation (residues not given)
notes: Sso1427, RAMP subunit of the CSM complex of S. solfataricus; its mass lies within 70 Da of that of Sso1426; also called RAMP subunit; Csm3 paralog; source: endogenous, S. solfataricus PH1-16; co-purified with the tagged subunit (HisTrap, monoQ, gel filtration)
B7: Sso1430 (natural protein, UniProt Q97YA2 1-206, looked up)
chain: MIPIKVSMRNLSSLTIAGGSTISSIDIPLNPLGVPPSTIKGTMRTAVHNLLPNGYTSCGEVEPESIREAHKNGVCDVCKLFGYPDSLTGCFTIDVSKTDYRTSYITRVSIDDKTQRAKEGSLFTQQIILPNSDISFTVYYNCNDERLFKLLLYSILDLRYWRLGRNTMIDVKVNNVEEICKSVKCDEEINGILNQLSRYLWEAENK
modifications: methylation (residues not given)
notes: Sso1430, subunit of the CSM complex of S. solfataricus; also called RAMP subunit; Csm3 paralog; source: endogenous, S. solfataricus PH1-16; co-purified with the tagged subunit (HisTrap, monoQ, gel filtration)

Biological target: B6
Assay: cross-linking; purified CSM complex (1 ug/ul) with a 1:1 mixture of d4 and d0 BS3, 1 hr at room temperature; cross-linked peptides found by MS (MassMatrix) and validated by hand
Settings: both partners purified

| Binder | binding result |
| --- | --- |
| B1 | binds |

Biological target: the molecule itself
Assay: native MS + other: quantitative proteomics with isotope-labelled peptides; exhaustive mass search on the intact mass 427,611 Da; copy numbers of Sso1424, Sso1425 and Sso1426 allowed to vary by one, the others fixed by Table 1; one hit within a mass error of 3%
Settings: not given

| Binder | stoichiometry N [copies] |
| --- | --- |
| B2 | 4 |
| B1 | 3 |

Biological target: T1, Sso1428 with C-terminal tandem tag …
Assay: as above
Settings: both partners purified

| Binder | stoichiometry N |
| --- | --- |
| B3 | 1 subunit:Sso1428 |
| B4 | 1 subunit:Sso1428 |
| B2 | 4 subunit:Sso1428 |
| B1 | 3 subunit:Sso1428 |
| B5 | 1 subunit:Sso1428 |
| B6 | 1 subunit:Sso1428 |
| B7 | 1 subunit:Sso1428 |

Biological target: T1, Sso1428 with C-terminal tandem tag …
Assay: quantitative proteomics with isotope-labelled dipeptides (LC-MS); purified CSM complex spiked with synthetic (15N,13C)-labelled dipeptides joining a peptide of each subunit to the reference peptide of Sso1428, trypsin digest, LTQ-Orbitrap; ratio of peak areas
Settings: both partners purified

| Binder | stoichiometry N |
| --- | --- |
| B3 | 1.45 subunit:Sso1428 and 1.35 subunit:Sso1428 and 1.56 subunit:Sso1428 |
| B4 | 0.92 subunit:Sso1428 and 0.91 subunit:Sso1428 and 0.96 subunit:Sso1428 and 0.93 subunit:Sso1428 |
| B2 | 4.85 subunit:Sso1428 and 4.81 subunit:Sso1428 and 4.73 subunit:Sso1428 and 4.8 subunit:Sso1428 |
| B1 | 3.62 subunit:Sso1428 and 3.51 subunit:Sso1428 and 4.03 subunit:Sso1428 and 3.72 subunit:Sso1428 |
| B5 | 0.67 subunit:Sso1428 and 0.65 subunit:Sso1428 and 0.7 subunit:Sso1428 |
| B6 | 0.8 subunit:Sso1428 and 0.79 subunit:Sso1428 and 0.83 subunit:Sso1428 and 0.81 subunit:Sso1428 |

Biological target: B7
Assay: native MS; purified CSM complex disassembled in 200 mM ammonium acetate with 5%-20% acetic acid (pH 3.9, 3.5, 3.2); subcomplexes of 357 to 120 kDa assigned by tandem MS; interaction map deduced from the disassembly pattern with the help of the EM shape
Settings: both partners purified

| Binder | binding result |
| --- | --- |
| B1 | binds |

Biological target: B5
Assay: as above
Settings: both partners purified

| Binder | binding result |
| --- | --- |
| B6 | binds |
